Source: patent US10808017B2, “Ubiquitin variants and uses therof as 53BP1 inhibitors” (The Governing Council of the University of Toronto, priority 2016, dated 2020)
“Also recorded” adds a separate entry of the source.

Legend:
[1] = tested on: gene conversion (HR) in U2OS DR-GFP cells; assay: Direct-repeat (DR)-GFP gene conversion assay; assay type: cell-based, human
Method: FIG. 4. Activation of HR by i53. FIG. 4A, Schematic of the DR-GFP assay. FIG. 4B. U2OS DR-GFP cells were transfected with the vectors expressing i53, the DM mutant or an empty vector control (EV) along with an I-Scel expression vector. The percentage of GFP-positive cells was determined 48 h post-transfection for each condition and was normalized to the empty vector condition (mean±s.d., N=4). FIG. 4C, U2OS DR-GFP were first transfected with siRNAs targeting the 53BP1 or BRCA1 mRNAs along with a non-targeting siRNA (CTRL). 24 h post-transfection, cells were transfected with the I-SceI expression vector and the percentage of GFP-positive cells was determined 48 h post-siRNA transfection for each condition. The values were normalized to the empty vector condition and presented as the mean±s.e.m; N=4. FIG. 4D, Schematic of the gene targeting assay. FIG. 4E, Gene targeting efficiency at the LMNA locus in parental or 53BP1Δ U2OS cells following transfection with vectors expressing Flag-tagged i53 or its DM mutant or an empty vector control (EV). The DNA-PK inhibitor NU7441 was also added where indicated. 24 h post-transfection, cells were analysed for mClover fluorescence. Individual experiments are presented with the error bar representing the s.d., (N=3). FIG. 4F, Gene targeting at the LMNA locus in G 1-arrested parental (WT) or 53BP1Δ U2OS cells transfected with vectors expressing Flag-tagged i53 or its DM mutant or an empty vector control (EV). The DNA-PK inhibitor NU7441 was also added in the indicated conditions. 24 h post-transfection, cells were analysed for mClover fluorescence. Individual experiments are present with the error bar representing the s.d., (N=3).
The direct repeat (DR)-GFP assay to measure the frequency of HR and the strand annealing EJ2-GFP assay to measure the frequency of MMEJ were performed as previously described. Briefly, U2OS DR-GFP or U2OS EJ2-GFP cells were transfected with 10 nM siRNA (Dharmacon) using Lipofectamine RNAiMAX (Invitrogen). 24 h later, the cells were transfected with the pCBASceI plasmid (Addgene #26477) and plasmids, using Lipofectamine 2000 (Invitrogen). 48 h post-plasmid transfection, the cells were trypsinized and the percentage of GFP-expressing cells was analyzed using the BD FACSCalibur flow cytometer.
AAV-293 cells (Agilent) were transfected with pAAV expression, pDJ and pHelper constructs (Cell Biolabs, Inc., USA) in equal amounts using PEI to produce AAV-DJ expression viruses. 48-72 h later, the viral supernatant was used to transduce target cells for 24 h, and assays were initiated a further 24 h later.

[2] = tested on: BRCA1-deficient RPE1-hTERT cells; assay: Olaparib sensitivity assay; assay type: cell-based; details: viral delivery of HA-tagged i53; compared to genetic deletion of 53BP1; Trypan blue viable count
From the text: FIG. 9 Expression of i53 suppresses PARP inhibitor sensitivity of BRCA1-deficience cells. FIG. 9A, An isogenic set of cell lines derived from RPE 1-hTERT cells deleted for the gene coding for p53 (TP53Δ) containing either no further mutations (WT) or null mutations in BRCA1 (BRCA1Δ) or 53BP1 (53BP1Δ) alone or in combination, as indicated. These cell lines were transduced either with an empty virus (EV) or with lentiviruses that express HA-tagged i53 or its DM mutant. The virus also expressed GFP from an IRES. After sorting for GFP cells the viability of cells following olaparib treatment for […] was monitored by trypan blue exclusion. Data is presented as the mean +/− s.d. (N=3). FIG. 9B , Whole-cell extracts from the isogenic sets of RPE1-hTERT TP53Δ cells were separated by SDS page and probed by immunoblotting with the indicated antibodies. FIG. 9C , Expression of the HA-tagged Ubvs in the indicated RPE1-hTERT TP53Δ cell lines was determined by anti-HA immunoprecipitation (IP) followed by immunoblotting.
RPE1 hTERT cells were obtained from ATTC and maintained in DMEM +10% FCS. […]
Cells were seeded at a density of 20,000 cells/well in 6-well plates in the presence of olaparib at day 0. […] At day 6, cells were collected by trypsinization and viable cell count was determined by Trypan blue exclusion using an automated cell counter (Vi-CELL, Beckman Coulter).

“i53: UbvG08 with C-terminal di-glycine removed and I44A mutation; genetically encoded inhibitor of 53BP1” was tested, and the “Homologous recombination in DR-GFP gene conversion assay after AAV-mediated delivery” value ([1]; AAV-DJ delivery, versus Flag-i53-DM) was “stimulate homologous recombination”, the “Gene conversion in DR-GFP assay (comparison in words)” value ([1]; SCR7 at 1 μM, i53 by plasmid expression) was “more potent inducer of gene conversion; also recorded: stimulated gene conversion more than 53BP1 depletion by siRNA” and the “Alleviation of PARP inhibitor (olaparib) sensitivity” value [2] was “only partially alleviated”.
